Measured values from publication PMC5445078, “Probing the Roles of Calcium-Binding Sites during the Folding of Human Peptidylarginine Deiminase 4” (Scientific Reports, 2017).
Residue numbers refer to the chain shown, from its start. In names and notes the source's numbering stands.

B1: PAD4 Ca1_site mutant (Q349A/E353A/E411A) (enzyme, human, UniProt Q9UM07 1-663, looked up)
chain: MAQGTLIRVTPEQPTHAVCVLGTLTQLDICSSAPEDCTSFSINASPGVVVDIAHGPPAKKKSTGSSTWPLDPGVEVTLTMKVASGSTGDQKVQISYYGPKTPPVKALLYLTGVEISLCADITRTGKVKPTRAVKDQRTWTWGPCGQGAILLVNCDRDNLESSAMDCEDDEVLDSEDLQDMSLMTLSTKTPKDFFTNHTLVLHVARSEMDKVRVFQATRGKLSSKCSVVLGPKWPSHYLMVPGGKHNMDFYVEALAFPDTDFPGLITLTISLLDTSNLELPEAVVFQDSVVFRVAPWIMTPNTQPPQEVYACSIFENEDFLKSVTTLAMKAKCKLTICPEEENMDDQWMADEMAIGYIQAPHKTLPVVFDSPRNRGLKEFPIKRVMGPDFGYVTRGPQTGGISGLDSFGNLAVSPPVTVRGKEYPLGRILFGDSCYPSNDSRQMHQALQDFLSAQQVQAPVKLYSDWLSVGHVDEFLSFVPAPDRKGFRLLLASPRSCYKLFQEQQNEGHGEALLFEGIKKKKQQKIKNILSNKTLREHNSFVERCIDWNRELLKRELGLAESDIIDIPQLFKLKEFSKAEAFFPNMVNMLVLGKHLGIPKPFGPVINGRCCLEEKVCSLLEPLGLQCTFINDFFTYHIRHGEVHCGTNVRRKPFSFKWWNMVP
notes: human peptidylarginine deiminase 4 (PAD4), cDNA cloned into pQE30; source: E. coli JM109, purified (Ni-NTA)
B2: PAD4 Ca3_site mutant (N153A/D155A/D157A/D165A/D176A/D179A) (enzyme, human, UniProt Q9UM07 1-663, looked up)
chain: B1 chain with N153A, D155A, D157A, D165A, D176A, D179A, A349Q, A353E, A411E
notes: as for B1
B3: PAD4 Ca4_site mutant (D155A/D157A/D179A/D388A) (enzyme, human, UniProt Q9UM07 1-663, looked up)
chain: B1 chain with D155A, D157A, D179A, A349Q, A353E, D388A, A411E
notes: as for B1
B4: PAD4 Ca2_site mutant (E351A/D369A/N373A) (enzyme, human, UniProt Q9UM07 1-663, looked up)
chain: B1 chain with A349Q, E351A, A353E, D369A, N373A, A411E
notes: as for B1
B5: human PAD4 Ca1_site mutant (Q349A/E353A/E411A) (enzyme, UniProt Q9UM07 1-663, looked up)
chain: B1 chain
notes: source: E. coli JM109, purified (Ni-NTA)
B6: human PAD4 Ca4_site mutant (D155A/D157A/D179A/D388A) (enzyme, UniProt Q9UM07 1-663, looked up)
chain: B1 chain with D155A, D157A, D179A, A349Q, A353E, D388A, A411E
notes: as for B5
B7: human PAD4 Ca2_site mutant (E351A/D369A/N373A) (enzyme, UniProt Q9UM07 1-663, looked up)
chain: B1 chain with A349Q, E351A, A353E, D369A, N373A, A411E
notes: as for B5
B8: human PAD4 Ca3_site mutant (N153A/D155A/D157A/D165A/D176A/D179A) (enzyme, UniProt Q9UM07 1-663, looked up)
chain: B1 chain with N153A, D155A, D157A, D165A, D176A, D179A, A349Q, A353E, A411E
notes: as for B5

target: human PAD4 Ca5_site mutant (D168A/E252A) (human) (UniProt Q9UM07); test: AUC; sedimentation velocity, 20 °C, 42,000 rpm, absorbance at 280 nm, SEDFIT continuous size distribution; no urea, 10 mM Ca2+, 50 mM Tris-HCl pH 7.4; dimer to monomers

Row | Molecule | stoichiometry N
1 | human PAD4 Ca5_site mutant (D168A/E252A) (from UniProt Q9UM07 1-663) (enzyme) | 2

Target: the molecule itself
Test: AUC; sedimentation velocity at three protein concentrations (0.1, 0.3 and 0.9 mg/ml), globally fit with SEDPHAT; dimer to monomers

Row | Molecule | Kd
2 | B1 | 160 ± 1 nM
3 | B2 | 160 ± 1 nM
4 | B3 | 410 ± 4 nM
5 | B4 | 150 ± 1 nM

Target: the molecule itself
Test: AUC; sedimentation velocity, 20 °C, 42,000 rpm, absorbance at 280 nm, SEDFIT continuous size distribution; no urea, 10 mM Ca2+, 50 mM Tris-HCl pH 7.4; dimer to monomers

Row | Molecule | stoichiometry N
6 | B5 | 2
7 | B6 | 2
8 | B7 | 2
9 | B8 | 2
